The values that follow come from IntAct's records for PubMed 22232549.

The chains are these.
B1: Extra-large guanine nucleotide-binding protein 2 (Arabidopsis thaliana (Mouse-ear cress)), C6KIE6 (parent)
chain: MAAVIRKLLPFPSPNPKRDNRESDDDDETSSGYRIEYSFASEYKGPLIANVPRALPVEVDQIPTALPVSFSSLRSGISYPVAPLVMTKDTKRPPDSGIEKKNGFVDSAAGSSVVLIGRDVVSGSSSSSSSKRLDVPEEVKSPADFRLSPSSPLSASAREEDHLDDDRVSDVGPRAVRFVEPFQSSECDESSYVSDGESIAATHRAERKGKRGSCYRCQLGNRFTEKEVCIVCDAKYCFNCVRRAMGAMPEGRKCQACIGYRIDESKRASLGKCSRMLKRHLTDSELRQVMNAEITCKANQLPSRLIIVNDKPLSEDELYTLQTCPNPPKKLKPGHYWYDKVAGYWGKIGEKPSQIISPNNSIGGYISEKVSNGDTEIYINGREITKPELTMLKWAGVQCEGKPHFWVDSDGSYREEGQKHPIGNIWSKKRAKIACAVFSLPVPPASSAVEPYDVPLYEQKMLNKLLLIGSEKGGATTIYKQARSLYNVSFSLEDRERIKFIIQTNLYTYLAMVLEAHERFEKEMSNDQSSGNVGDETSAKPGNSINPRLKHFSDWVLKEKEDGNLKIFPPSSRENAQTVADLWRVPAIQATYKRLRDTLPRNAVYFLERILEISRSEYDPSDMDILQAEGLSSMEGLSCVDFSFPSTSQEESLESDYQHDTDMKYQLIRLNPRSLGENWKLLEMFEDADLVIFCVSLTDYAENIEDGEGNIVNKMLATKQLFENMVTHPSLANKRFLLVLTKFDLLEEKIEEVPLRTCEWFEDFNPLISQNQTSRHNPPMAQRAFHYIGYKFKRLYDSILEPVNMRGRSFKPKLFVCQVSLESDTVDNALRYAREILKWHVEETSMFQEMSTTSIEASSSS
partner: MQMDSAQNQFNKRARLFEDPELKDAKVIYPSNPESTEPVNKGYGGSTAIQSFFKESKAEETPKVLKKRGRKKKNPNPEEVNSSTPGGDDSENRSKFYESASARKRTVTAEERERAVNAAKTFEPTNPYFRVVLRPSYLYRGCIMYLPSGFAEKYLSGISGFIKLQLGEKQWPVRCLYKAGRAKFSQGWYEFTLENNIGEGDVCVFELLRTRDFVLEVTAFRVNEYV

The test covers variants of B1. To be noted: with rem19_arath REM19, Q9XIB5.
Consider T476N, for which the “effect of a mutation on the interaction” value is reported as “disrupting interaction”.
